Measured values as given in patent US20170260508A1 (FRED HUTCHINSON CANCER RESEARCH CENTER, published 2017).
Substitutions are numbered along the chain they refer to. Names may count otherwise.

B1: LILRB2 Ig1 domain expressed on 293T cells (receptor)
chain: GTIPKPTLWAEPDSVITQGSPVTLSCQGSLEAQEYRLYREKKSASWITRIRPELVKNGQFHIPSITWEHTGRYGCQYYSRARWSELSDPLVLVMTG
notes: The range is stated for the chimeric reporter constructs; also called 1st Ig domain
B2: LILRB2 Ig3 domain expressed on 293T cells (receptor)
chain: VSKKPSLSVQPGPVVAPGESLTLQCVSDVGYDRFVLYKEGERDLRQLPGRQPQAGLSQANFTLGPVSRSYGGQYRCYGAHNLSSECSAPSDPLDILITGQ
notes: The range is stated for the chimeric reporter constructs; also called 3rd Ig domain
B3: fibrinogen-like domain (FBN) of Angptl2, FLAG-tagged (ligand)
chain: DKPSGPWRDCLQALEDGHDTSSIYLVKPENTNRLMQVWCDQRHDPGGWTVIQRRLDGSVNFFRNWETYKQGFGNIDGEYWLGLENIYWLTNQGNYKLLVTMEDWSGRKVFAEYASFRLEPESEYYKLRLGRYHGNAGDSFTWHNGKQFTTLDRDHDVYTGNCAHYQKGGWWYNACAHSNLNGVWYRGGHYRSRYQDGVYWAEFRGGSYSLKKVVMMIRPNPNTFH
notes: the whole Angptl2 entry is named; Migrates as a 37 kD monomer; also called FBN domain; fibrinogen domain; not shown: FLAG tag
B4: LILRB2 Ig4 domain expressed on 293T cells (receptor)
chain: IRGTPFISVQPGPTVASGENVTLLCQSWRQFHTFLLTKAGAADAPLRLRSIHEYPKYQAEFPMSPVTSAHAGTYRCYGSLNSDPYLLSHPSEPLELVVSGPSMGSSPPPTGPISTPGPEDQPLTPTGSDPQSGLGRHL
notes: The range is stated for the chimeric reporter constructs; also called 4th Ig domain
B5: Angptl5-FLAG, secreted (ligand)
chain: NCVHHSTDSSVVNIVEDGSNAKDESKSNDTVCKEDCEESCDVKTKITREEKHFMCRNLQNSIVSYTRSTKKLLRNMMDEQQASLDYLSNQVNELMNRVLLLTTEVFRKQLDPFPHRPVQSHGLDCTDIKDTIGSVTKTPSGLYIIHPEGSSYPFEVMCDMDYRGGGWTVIQKRIDGIIDFQRLWCDYLDGFGDLLGEFWLGLKKIFYIVNQKNTSFMLYVALESEDDTLAYASYDNFWLEDETRFFKMHLGRYSGNAGDAFRGLKKEDNQNAMPFSTSDVDNDGCRPACLVNGQSVKSCSHLHNKTGWWFNECGLANLNGIHHFSGKLLATGIQWGTWTKNNSPVKIKSVSMKIRRMYNPYFK
notes: read as Angptl5; not shown: FLAG tag at the C terminus
B6: LILRB2 Ig2 domain expressed on 293T cells (receptor)
chain: AYPKPTLSAQPSPVVTSGGRVTLQCESQVAFGGFILCKEGEEEHPQCLNSQPHARGSSRAIFSVGPVSPNRRWSHRCYGYDLNSPYVWSSPSDLLELLVP
notes: The range is stated for the chimeric reporter constructs; also called 2nd Ig domain
B7: LILRB2 H92S on 293T cells (receptor)
chain: QTGTIPKPTLWAEPDSVITQGSPVTLSCQGSLEAQEYRLYREKKSASWITRIRPELVKNGQFHIPSITWESTGRYGCQYYSRARWSELSDPLVLVMTGAYPKPTLSAQPSPVVTSGGRVTLQCESQVAFGGFILCKEGEEEHPQCLNSQPHARGSSRAIFSVGPVSPNRRWSHRCYGYDLNSPYVWSSPSDLLELLVPGVSKKPSLSVQPGPVVAPGESLTLQCVSDVGYDRFVLYKEGERDLRQLPGRQPQAGLSQANFTLGPVSRSYGGQYRCYGAHNLSSECSAPSDPLDILITGQIRGTPFISVQPGPTVASGENVTLLCQSWRQFHTFLLTKAGAADAPLRLRSIHEYPKYQAEFPMSPVTSAHAGTYRCYGSLNSDPYLLSHPSEPLELVVSGPSMGSSPPPTGPISTPGPEDQPLTPTGSDPQSGLGRHLGVVIGILVAVVLLLLLLLLLFLILRHRRQGKHWTSTQRKADFQHPAGAVGPEPTDRGLQWRSSPAADAQEENLYAAVKDTQPEDGVEMDTRAAASEAPQDVTYAQLHSLTLRRKATEPPPSQEREPPAEPSIYATLAIH
B8: LILRB2 T93A on 293T cells (receptor)
chain: B7 chain with S71H, T72A
B9: full-length LILRB2 R95E on 293T cells (receptor)
chain: B7 chain with S71H, R74E
notes: also called single mutation in R95
B10: full-length LILRB2 Y96A/Y394A on 293T cells (receptor)
chain: B7 chain with S71H, Y75A, Y373A
notes: also called Y96A combined with Y394A
B11: LILRB2 T393E on 293T cells (receptor)
chain: B7 chain with S71H, T372E
B12: LILRB2 MHC-S1 mutant (R59A/Y61A) on 293T cells (receptor)
chain: B7 chain with R38A, Y40A, S71H
B13: full-length LILRB2 Y96A/G392D on 293T cells (receptor)
chain: B7 chain with S71H, Y75A, G371D
notes: also called Y96A combined with G392D
B14: LILRB2 Q99R on 293T cells (receptor)
chain: B7 chain with S71H, Q78R
B15: full-length LILRB2 G94D on 293T cells (receptor)
chain: B7 chain with S71H, G73D
notes: also called single mutation in G94
B16: LILRB2 G392D on 293T cells (receptor)
chain: B7 chain with S71H, G371D
B17: Angptl2-FLAG, full-length human Angptl2 secreted from transfected 293T cells (ligand)
chain: QEDGFEGTEEGSPREFIYLNRYKRAGESQDKCTYTFIVPQQRVTGAICVNSKEPEVLLENRVHKQELELLNNELLKQKRQIETLQQLVEVDGGIVSEVKLLRKESRNMNSRVTQLYMQLLHEIIRKRDNALELSQLENRILNQTADMLQLASKYKDLEHKYQHLATLAHNQSEIIAQLEEHCQRVPSARPVPQPPPAAPPRVYQPPTYNRIINQISTNEIQSDQNLKVLPPPLPTMPTLTSLPSSTDKPSGPWRDCLQALEDGHDTSSIYLVKPENTNRLMQVWCDQRHDPGGWTVIQRRLDGSVNFFRNWETYKQGFGNIDGEYWLGLENIYWLTNQGNYKLLVTMEDWSGRKVFAEYASFRLEPESEYYKLRLGRYHGNAGDSFTWHNGKQFTTLDRDHDVYTGNCAHYQKGGWWYNACAHSNLNGVWYRGGHYRSRYQDGVYWAEFRGGSYSLKKVVMMIRPNPNTFH
notes: Runs partly as a high molecular weight (>250 kD) multimer; also called full-length Angptl2; FLAG-tagged Angptl2; not shown: FLAG tag at the C terminus

What was measured:
[1] = target: B17; test: flow cytometry, Angptl2 on 293T cells expressing the domain
Description: (§1) Flow cytometry. […] Cells were harvested at 48 h for analysis. […] Anti-LILRB2-PE was used as indicated. Cells were analyzed using either a FACSCalibur or FACSAria instrument (Becton Dickinson).
LILRB2 contains four extracellular immunoglobulin (Ig)-like domains. Takai et al., J Biomed Biotechnol. 2011; 2011:275302. […] To test this hypothesis, a number of domain and site-specific mutations of LILRB2 were generated for the flow cytometry-based cell surface ligand binding assay and chimeric reporter assay.

[2] = target: T1, human LILRB2, wild-type full-length, on cells (human, UniProt Q8N423 22-597); test: flow cytometry, human cord blood mononuclear cells, anti-FLAG-APC and anti-human LILRB2-PE
T1 construct: the assay field says which; also called WT LILRB2; full-length LILRB2
Description: as §1

[3] = target: T1, human LILRB2, wild-type full-length, on …; test: flow cytometry, LILRB2 on 293T cells
[4] = target: B17; test: flow cytometry, ligand on mutant LILRB2 (FIG. 6G)
Description: as §1

[5] = target: B17; test: flow cytometry, Angptl2 on 293T cells expressing the mutant
Description: as §1

[6] = target: T2, full-length LILRB2 Y96A on 293T cells (human, UniProt Q8N423 22-597); test: flow cytometry, Angptl2 on 293T cells expressing mutant LILRB2
T2 construct: also called single mutation in Y96
Description: as §1

[7] = target: T3, full-length LILRB2 with mutations in AA 92-100 (Mut-8 aa) (human); test: as above
T3 construct: also called the full-length LILRB2 with the same mutation
Description: as §1

[8] = target: B9; test: as above
Description: as §1

[9] = target: B15; test: as above
Description: as §1

Binder: B1
binding result [1]: no binding

Binder: B2
binding result [1]: no binding

Binder: B3
binding result [2]: no binding

Binder: B4
binding result [1]: no binding

Binder: B5
binding result [3]: binds

Binder: B6
binding result [1]: no binding

Binder: B7
binding result [4]: binds

Binder: B8
binding result [4]: binds

Binder: B9
binding result [4]: binds

Binder: B10
binding result [5]: no binding

Binder: B11
binding result [4]: binds

Binder: B12
binding result [4]: binds

Binder: B13
binding result [5]: no binding

Binder: B14
binding result [4]: binds

Binder: B15
binding result [4]: binds

Binder: B16
binding result [4]: binds

Binder: B17
reduction of Angptl2 binding [6]: 50% | decrease of Angptl2 binding relative to the wild-type protein [7]: > 50% | reduction of Angptl2 binding [8]: 50% | reduction of Angptl2 binding [9]: 50%
